Laboratory results: patent publication US20190071490A1 (BETH ISRAEL DEACONESS MEDICAL CENTER, published 2019)

T1: rat α-CGRP (1-37) (rat, C-terminal amide; N-terminal biotin when captured on the SA chip)
T1 construct: also called rat α (1-37); α-rat
T1 peptide: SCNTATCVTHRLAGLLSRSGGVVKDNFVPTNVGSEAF

T2: human α-CGRP 1-37 (WT) (human, C-terminal amide; N-terminal biotin when captured on the SA chip; 125I-labelled in the radioligand assay)
T2 construct: also called α-human
T2 peptide: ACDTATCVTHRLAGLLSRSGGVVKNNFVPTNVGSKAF


Tests used:
rat α-CGRP (1-37) = target: T1, rat α-CGRP (1-37); test: Biacore, 37°C, Fab over CGRP on SA chip
Description: (§1) Biacore assay for affinity determination. […] All Biacore assays were conducted in HBS-EP running buffer (10 mM HEPES pH 7.4, 150 mM NaCl, 3 mM EDTA, 0.005% v/v polysorbate P20). CGRP surfaces were prepared by diluting the N-biotinylated CGRP to a concentration of less than 0.001 mg/mL into HBS-EP buffer and injecting it across the SA sensor chip using variable contact times. […] Samples were typically injected for 1 minute at 100 μL/min and dissociation times of at least 10 minutes were allowed. […] An entire titration series (typically generated in duplicate) was fit globally to a 1:1 Langmuir binding model using the BIAevaluation program. This returned a unique pair of association and dissociation kinetic rate constants (respectively, kₒₙ and koff) for each binding interaction, whose ratio gave the equilibrium dissociation constant (KD=koff/kₒₙ). […]

human α-CGRP 1-37 (WT) = target: T2, human α-CGRP 1-37 (WT); test: Biacore, 37°C, Fab over CGRP on SA chip
Description: as §1

Binder | Kd (rat α-CGRP (1-37)) | koff (rat α-CGRP (1-37)) | Kd (human α-CGRP 1-37 (WT)) | koff (human α-CGRP 1-37 (WT))
G1 variant M35 Fab (Fab, V domains shown, Fab; constant domains as m1) VH: EVQLVESGGGLVQPGGSLRLSCAASGFTFSNYWISWVRQAPGKGLEWVAEIRSKSDSSATHYAEAVKGRFTISRDNAKNSLYLQMNSLRAEDTAVYYCTVYFDYGLAIQNYWGQGTLVTVSS VL: EIVLTQSPATLSLSPGERATLSCKASKNVGTYVSWYQQKPGQAPRLLIYGASNRYLGIPARFSGSGSGTDFTLTISSLEPEDFAVYYCSQSYNYPYTFGQGTKLEIK | 222 nM | 0.00399 s⁻¹ | 2.12 nM | 0.000339 s⁻¹
G1 variant M47 Fab (Fab, V domains shown, Fab; constant domains as m1) VH: EVQLVESGGGLVQPGGSLRLSCAASGFTFSNYWISWVRQAPGKGLEWVAEIRSKSDNGATHYAEAVKGRFTISRDNAKNSLYLQMNSLRAEDTAVYYCTVYFDYGLAIQNYWGQGTLVTVSS VL: EIVLTQSPATLSLSPGERATLSCKASKNVTTYVSWYQQKPGQAPRLLIYAASNRYTGIPARFSGSGSGTDFTLTISSLEPEDFAVYYCSQSYNYPYTFGQGTKLEIK | 457 nM | 0.00823 s⁻¹ | 2.08 nM | 0.000332 s⁻¹
G1 variant M49 Fab (Fab, V domains shown, Fab; constant domains as m1) VH: EVQLVESGGGLVQPGGSLRLSCAASGFTFSNYWISWVRQAPGKGLEWVAEIRSKSDNYATFYAEAVKGRFTISRDNAKNSLYLQMNSLRAEDTAVYYCTVYFDYGLAIQNYWGQGTLVTVSS VL: EIVLTQSPATLSLSPGERATLSCKASKNVTTYVSWYQQKPGQAPRLLIYAASNRYTGIPARFSGSGSGTDFTLTISSLEPEDFAVYYCSQSYNYPYTFGQGTKLEIK | 822 nM | 0.0148 s⁻¹ | 3.72 nM | 0.000595 s⁻¹
G1 variant M50 Fab (Fab, V domains shown, Fab; constant domains as m1) VH: EVQLVESGGGLVQPGGSLRLSCAASGFTFSNYWISWVRQAPGKGLEWVAEIRSKSDRSATHYAEAVKGRFTISRDNAKNSLYLQMNSLRAEDTAVYYCTVYFDYGLAIQNYWGQGTLVTVSS VL: EIVLTQSPATLSLSPGERATLSCKASKNVTTYVSWYQQKPGQAPRLLIYAASNRYTGIPARFSGSGSGTDFTLTISSLEPEDFAVYYCSQSYNYPYTFGQGTKLEIK | 294 nM | 0.0053 s⁻¹ | 2.54 nM | 0.000406 s⁻¹
G1 variant M45 Fab (Fab, V domains shown, Fab; constant domains as m1) VH: EVQLVESGGGLVQPGGSLRLSCAASGFTFSNYWISWVRQAPGKGLEWVAEIRSKSDNEATHYADAVKGRFTISRDNAKNSLYLQMNSLRAEDTAVYYCTVYFDYGLAIQNYWGQGTLVTVSS VL: EIVLTQSPATLSLSPGERATLSCKASKNVTTYVSWYQQKPGQAPRLLIYAASNRYTGIPARFSGSGSGTDFTLTISSLEPEDFAVYYCSQSYNYPYTFGQGTKLEIK | 259 nM | 0.00558 s⁻¹ | 1.85 nM | 0.000211 s⁻¹
G1 variant M42 Fab (Fab, V domains shown, Fab; constant domains as m1) VH: EVQLVESGGGLVQPGGSLRLSCAASGFTFSNYWISWVRQAPGKGLEWVAEIRSKSDNSATFYAEAVKGRFTISRDNAKNSLYLQMNSLRAEDTAVYYCTVYFDYGLAIQNYWGQGTLVTVSS VL: EIVLTQSPATLSLSPGERATLSCKASKNVTTYVSWYQQKPGQAPRLLIYAASNRYTGIPARFSGSGSGTDFTLTISSLEPEDFAVYYCSQSYNYPYTFGQGTKLEIK | 418 nM | 0.00752 s⁻¹ | 2.61 nM | 0.000417 s⁻¹
G1 variant M39 Fab (Fab, V domains shown, Fab; constant domains as m1) VH: EVQLVESGGGLVQPGGSLRLSCAASGFTFSNYWISWVRQAPGKGLEWVAEIRSESDNYATHYAEAVKGRFTISRDNAKNSLYLQMNSLRAEDTAVYYCTVYFDYGLAIQNYWGQGTLVTVSS VL: EIVLTQSPATLSLSPGERATLSCKASKNVTTYVSWYQQKPGQAPRLLIYAASNRYTGIPARFSGSGSGTDFTLTISSLEPEDFAVYYCSQSYNYPYTFGQGTKLEIK | 553 nM | 0.00995 s⁻¹ | 2.66 nM | 0.000425 s⁻¹
G1 variant M41 Fab (Fab, V domains shown, Fab; constant domains as m1) VH: EVQLVESGGGLVQPGGSLRLSCAASGFTFSNYWISWVRQAPGKGLEWVAEIRSKSDNSATHYADAVKGRFTISRDNAKNSLYLQMNSLRAEDTAVYYCTVYFDYGLAIQNYWGQGTLVTVSS VL: EIVLTQSPATLSLSPGERATLSCKASKNVTTYVSWYQQKPGQAPRLLIYAASNRYTGIPARFSGSGSGTDFTLTISSLEPEDFAVYYCSQSYNYPYTFGQGTKLEIK | 252 nM | 0.00453 s⁻¹ | 1.31 nM | 0.00021 s⁻¹
G1 variant M40 Fab (Fab, V domains shown, Fab; constant domains as m1) VH: EVQLVESGGGLVQPGGSLRLSCAASGFTFSNYWISWVRQAPGKGLEWVAEIRSKSDLSATHYAEAVKGRFTISRDNAKNSLYLQMNSLRAEDTAVYYCTVYFDYGLAIQNYWGQGTLVTVSS VL: EIVLTQSPATLSLSPGERATLSCKASKNVTTYVSWYQQKPGQAPRLLIYAASNRYTGIPARFSGSGSGTDFTLTISSLEPEDFAVYYCSQSYNYPYTFGQGTKLEIK | 20000 nM | 0.36 s⁻¹ | 8 nM | 0.00128 s⁻¹
G1 variant M38 Fab (Fab, V domains shown, Fab; constant domains as m1) VH: EVQLVESGGGLVQPGGSLRLSCAASGFTFSNYWISWVRQAPGKGLEWVAEIRSESDASATHYAEAVKGRFTISRDNAKNSLYLQMNSLRAEDTAVYYCTVYFDYGLAIQNYWGQGTLVTVSS VL: EIVLTQSPATLSLSPGERATLSCKASKNVWTYVSWYQQKPGQAPRLLIYGASNRYLGIPARFSGSGSGTDFTLTISSLEPEDFAVYYCSQSYNYPYTFGQGTKLEIK | 284 nM | 0.00511 s⁻¹ | 1.36 nM | 0.000218 s⁻¹
G1 variant M37 Fab (Fab, V domains shown, Fab; constant domains as m1) VH: EVQLVESGGGLVQPGGSLRLSCAASGFTFSNYWISWVRQAPGKGLEWVAEIRSESDGSATHYAEAVKGRFTISRDNAKNSLYLQMNSLRAEDTAVYYCTVYFDYGLAIQNYWGQGTLVTVSS VL: EIVLTQSPATLSLSPGERATLSCKASKNVSTYVSWYQQKPGQAPRLLIYGASNRYLGIPARFSGSGSGTDFTLTISSLEPEDFAVYYCSQSYNYPYTFGQGTKLEIK | 80.6 nM | 0.00145 s⁻¹ | 1.41 nM | 0.000226 s⁻¹
G1 variant M43 Fab (Fab, V domains shown, Fab; constant domains as m1) VH: EVQLVESGGGLVQPGGSLRLSCAASGFTFSNYWISWVRQAPGKGLEWVAEIRSKSDNCATHYAEAVKGRFTISRDNAKNSLYLQMNSLRAEDTAVYYCTVYFDYGLAIQNYWGQGTLVTVSS VL: EIVLTQSPATLSLSPGERATLSCKASKNVTTYVSWYQQKPGQAPRLLIYAASNRYTGIPARFSGSGSGTDFTLTISSLEPEDFAVYYCSQSYNYPYTFGQGTKLEIK | 252 nM | 0.00453 s⁻¹ | 1.64 nM | 0.000263 s⁻¹
G1 variant M36 Fab (Fab, V domains shown, Fab; constant domains as m1) VH: EVQLVESGGGLVQPGGSLRLSCAASGFTFSNYWISWVRQAPGKGLEWVAEIRSESDASATHYAEAVKGRFTISRDNAKNSLYLQMNSLRAEDTAVYYCTVYFDYGLAIQNYWGQGTLVTVSS VL: EIVLTQSPATLSLSPGERATLSCKASKNVRTYVSWYQQKPGQAPRLLIYGASNRYLGIPARFSGSGSGTDFTLTISSLEPEDFAVYYCSQSYNYPYTFGQGTKLEIK | 266 nM | 0.00479 s⁻¹ | 1.49 nM | 0.000239 s⁻¹
G1 variant M46 Fab (Fab, V domains shown, Fab; constant domains as m1) VH: EVQLVESGGGLVQPGGSLRLSCAASGFTFSNYWISWVRQAPGKGLEWVAEIRSKSDNEATFYAEAVKGRFTISRDNAKNSLYLQMNSLRAEDTAVYYCTVYFDYGLAIQNYWGQGTLVTVSS VL: EIVLTQSPATLSLSPGERATLSCKASKNVTTYVSWYQQKPGQAPRLLIYAASNRYTGIPARFSGSGSGTDFTLTISSLEPEDFAVYYCSQSYNYPYTFGQGTKLEIK | 163 nM | 0.00294 s⁻¹ | 3.37 nM | 0.000539 s⁻¹
G1 variant M48 Fab (Fab, V domains shown, Fab; constant domains as m1) VH: EVQLVESGGGLVQPGGSLRLSCAASGFTFSNYWISWVRQAPGKGLEWVAEIRSKSDNLATHYAEAVKGRFTISRDNAKNSLYLQMNSLRAEDTAVYYCTVYFDYGLAIQNYWGQGTLVTVSS VL: EIVLTQSPATLSLSPGERATLSCKASKNVTTYVSWYQQKPGQAPRLLIYAASNRYTGIPARFSGSGSGTDFTLTISSLEPEDFAVYYCSQSYNYPYTFGQGTKLEIK | 1910 nM | 0.0343 s⁻¹ | 5.26 nM | 0.000842 s⁻¹
G1 variant M44 Fab (Fab, V domains shown, Fab; constant domains as m1) VH: EVQLVESGGGLVQPGGSLRLSCAASGFTFSNYWISWVRQAPGKGLEWVAEIRSKSDNEATHYAEAVKGRFTISRDNAKNSLYLQMNSLRAEDTAVYYCTVYFDYGLAIQNYWGQGTLVTVSS VL: EIVLTQSPATLSLSPGERATLSCKASKNVTTYVSWYQQKPGQAPRLLIYAASNRYTGIPARFSGSGSGTDFTLTISSLEPEDFAVYYCSQSYNYPYTFGQGTKLEIK | 443 nM | 0.00613 s⁻¹ | 2.05 nM | 0.00021 s⁻¹
